Data on 31 sequences can be found in the Immune Epitope Database (IEDB).

In test [1] the target is HLA-A*68:02. In words: IEDB peptide-MHC binding, purified MHC/competitive/radioactivity; filed as Kd, often an IC50 or EC50 that approximates it; ≥ and ≤ were set here for values at or beyond the usual limits of such assays.
Test [2] concerns the target HLA-B*08:01. The test is described as above.
For test [3], the target named is HLA-B*51:01. In words: IEDB peptide-MHC binding, purified MHC/competitive/fluorescence; filed as Kd, often an IC50 or EC50 that approximates it; ≥ and ≤ were set here for values at or beyond the usual limits of such assays.
Test [4] has as its target HLA-A*26:01. Nature of the test: IEDB peptide-MHC binding, purified MHC/competitive/radioactivity; filed as Kd, often an IC50 or EC50 that approximates it; ≥ and ≤ were set here for values at or beyond the usual limits of such assays.
The target in test [5] is HLA-A*02:02. Described as above. To be noted: source organism: Trypanosoma cruzi.
Test [6] deals with HLA-A*02:06. The description is as above. To be noted: source organism: Trypanosoma cruzi.
Test [7] has as its target HLA-A*02:03. The description is as above. To be noted: source organism: Trypanosoma cruzi.
The target in test [8] is HLA-A*02:01. The test is described as above.
For test [9], the target named is HLA-A*24:02. Nature of the test: IEDB peptide-MHC binding, purified MHC/competitive/fluorescence; ≥ and ≤ were set here for values at or beyond the usual limits of such assays. To be noted: source organism: Zaire ebolavirus.
Test [10] has as its target HLA-A*02:01. Described as above. As to conditions: source organism: Zaire ebolavirus.
The target in test [11] is HLA-A*11:01. The test is described as above.
Test [12] addresses HLA-B*27:05. Nature of the test: IEDB peptide-MHC binding, purified MHC/direct/fluorescence; filed as Kd, often an IC50 or EC50 that approximates it; ≥ and ≤ were set here for values at or beyond the usual limits of such assays. To be noted: source organism: SARS-CoV1.
In test [13] the target is HLA-B*08:01. Described as above. To be noted: source organism: SARS-CoV1.
The target of test [14] is HLA-A*03:01. Nature of the test: IEDB peptide-MHC binding, purified MHC/competitive/fluorescence; filed as Kd, often an IC50 or EC50 that approximates it; ≥ and ≤ were set here for values at or beyond the usual limits of such assays.
Test [15] deals with HLA-A*02:01. Nature of the test: IEDB peptide-MHC binding, purified MHC/direct/fluorescence; filed as Kd, often an IC50 or EC50 that approximates it; ≥ and ≤ were set here for values at or beyond the usual limits of such assays. As to conditions: source organism: Vaccinia virus Copenhagen.
For test [16], the target named is HLA-B*15:01. The description is as above. To be noted: source organism: Vaccinia virus Copenhagen.
The target of test [17] is HLA-A*01:01. Nature of the test: IEDB peptide-MHC binding, purified MHC/competitive/radioactivity; filed as Kd, often an IC50 or EC50 that approximates it; ≥ and ≤ were set here for values at or beyond the usual limits of such assays. As to conditions: source organism: Dengue virus 3 Martinique/1243/1999.
The target in test [18] is HLA-A*24:03. In words: IEDB peptide-MHC binding, purified MHC/direct/fluorescence; filed as Kd, often an IC50 or EC50 that approximates it; ≥ and ≤ were set here for values at or beyond the usual limits of such assays. As to conditions: source organism: Mycobacterium tuberculosis variant bovis.
The target in test [19] is HLA-A*26:01. Nature of the test: IEDB peptide-MHC binding, purified MHC/competitive/fluorescence; filed as Kd, often an IC50 or EC50 that approximates it; ≥ and ≤ were set here for values at or beyond the usual limits of such assays. As to conditions: source organism: Pan troglodytes.
Test [20] concerns the target HLA-B*15:01. Described as above. As to conditions: source organism: Pan troglodytes.
For test [21], the target named is HLA-B*07:02. In words: IEDB peptide-MHC binding, purified MHC/direct/fluorescence; filed as Kd, often an IC50 or EC50 that approximates it; ≥ and ≤ were set here for values at or beyond the usual limits of such assays. To be noted: source organism: Homo sapiens.
The mark [22] stands for this setting: source organism: Dengue virus 2 Jamaica/1409/1983.
Where [23] appears, read: source organism: Trypanosoma cruzi.
Setting [24] is: source organism: Dengue virus 3 Martinique/1243/1999.
[25] abbreviates: source organism: Zaire ebolavirus.
Setting [26] is: source organism: Vaccinia virus WR.
The mark [27] stands for this setting: source organism: Dengue virus 4 Philippines/H241/1956.

Regarding EIAETQHGTI, the Kd in [1] (setting [22]) was determined as 101 nM.

With TKTTAKEVAL, the Kd in test [2] (source organism: Dengue virus 4 Dominica/814669/1981) was 4000 nM. As for FAIPIAEQI, the dissociation constant Kd in [3] (source organism: Listeria monocytogenes serotype 4b str. CLIP 80459) was at least 20000 nM.

With ESPSKLASAI, the Kd in [4] (setting [22]) was at least 66200 nM; in [1] (setting [22]) it was 74.2 nM. As for FANYKFTLV, the Kd stood at 73.8 nM in [5], 17.9 nM in [1] (setting [23]), 0.469 nM in [6] and 0.609 nM in [7]. AAGLQDCTMLV: the Kd in test [8] (source organism: Hepatitis C virus (isolate 1)) was at least 50000 nM. Take IKRRLRTLIL: in test [2] (setting [24]), the Kd was 185 nM. With THNTPVYKL, the half-maximal inhibitory concentration (IC50) in [9] was 17600 nM; in test [10], at least 735000 nM; in test [11] (setting [25]) it was 62400 nM.

On to IRANNNRLP, for which, in test [11] (setting [26]), the IC50 is at least 208000 nM. Turning to SEKMRRERA, the Kd in test [2] (setting [26]) came to 169 nM. As to ILIEGIFFV, the Kd in test [8] (source organism: Human alphaherpesvirus 3) was determined as 0.03 nM. As to TVHADTGCAV, the Kd in [1] (setting [27]) came to 86.1 nM. YRYLRHGKL: the Kd in test [12] came out at 78.6 nM; in test [13] it was 104 nM. On to NNSWKFNSE, for which, in [2] (setting [26]), the Kd came to 129 nM. On to LLLMRTTWA, for which the Kd in test [2] (setting [27]) stood at 18.5 nM. For the sequence EARVEFGPL, the Kd in test [2] (setting [26]) was determined as 177 nM.

As to SVYGLMGFK, the Kd in test [14] (source organism: Myxoma virus) came to 9.2 nM. Take LMRRGDLPV: the Kd in test [2] (setting [22]) worked out at 17.8 nM.

With SSTSRFVMF, the Kd in test [2] (setting [26]) stood at 1100 nM. On to MVYKLWFKY, for which the Kd in [14] (source organism: Entamoeba dispar SAW760) is 14100 nM. On to LFMSHVKSV, for which the Kd was found to be 3.07 nM in test [2] (setting [26]), 1750 nM in test [15] and 15200 nM in test [16]. In the case of DLTDYLMKI, in [1] (source organism: Homo sapiens), the Kd amounted to 3720 nM. For the sequence MTCIAVGMV, in test [1] (source organism: Dengue virus 1 Brazil/97-11/1997), the Kd came to 7.63 nM. Turning to ETMETLLLL, the Kd in test [4] (setting [24]) was 96.4 nM; in [1] (setting [24]), 17.4 nM; in [17], 11500 nM. Consider SRFTPQFLL, for which the IC50 in [9] was 1730 nM; in test [10] it was at least 106000 nM; in [11] (setting [25]), 45400 nM.

The sequence SYYPDQKSL gave a Kd in test [18] of 8.4 nM. On to ELLRPTTVV, for which the Kd in test [5] came to 6010 nM; in test [1] (setting [23]) it was 91.8 nM; in [8] (setting [23]), 6710 nM; in [6], 1880 nM; in test [7], 1200 nM. Sequence VLDQIDKNK came in with a 50% inhibitory concentration (IC50) in test [11] (setting [26]) of at least 71200 nM. Regarding KVRDRNFQL, the Kd in [19] was at least 20000 nM; in test [20], at least 20000 nM; in test [3] (source organism: Pan troglodytes), at least 20000 nM; in [21], 8.8 nM.

Regarding KFFPSSSYRR, the Kd in [14] (source organism: Influenza A virus (A/Fort Monmouth/1/1947-mouse adapted(H1N1))) was 4320 nM. Consider FANYNFTLL, for which the Kd in test [5] is 0.0839 nM; in [1] (setting [23]) it was 0.151 nM; in test [6], 0.122 nM; in test [7], 3.42 nM.

Broadly, the Kd is the concentration at which binding is half-saturated. Broadly, the IC50 is the concentration at which inhibition is half-maximal. Higher therefore signals weaker potency.
